In the supplement of paper PMC11246515:
± gives the standard deviation of the averaged measurements.

Assay: total protein half-life in vivo (active degradation + dilution); higher = more stable protein
[1] = E. coli NCM3722 delta-clpP delta-lon delta-hslV, growth: N-lim chemostat, doubling time 6 h
[2] = E. coli NCM3722 delta-hslV, growth: N-lim chemostat, doubling time 6 h
[3] = E. coli NCM3722 delta-lon, growth: N-lim chemostat, doubling time 6 h
[4] = E. coli NCM3722 delta-smpB, growth: N-lim chemostat, doubling time 6 h
[5] = wild type E. coli NCM3722, growth: C-lim chemostat, doubling time 3 h
[6] = wild type E. coli NCM3722, growth: C-lim chemostat, doubling time 6 h
[7] = wild type E. coli NCM3722, growth: C-lim chemostat, doubling time 12 h
[8] = wild type E. coli NCM3722, growth: N-lim chemostat, doubling time 6 h
[9] = wild type E. coli NCM3722, growth: N-lim chemostat, doubling time 12 h
[10] = wild type E. coli NCM3722, growth: P-lim chemostat, doubling time 6 h
[11] = wild type E. coli NCM3722, growth: P-lim chemostat, doubling time 12 h
[12] = E. coli NCM3722 delta-clpP, growth: N-lim chemostat, doubling time 6 h

Sequence	total protein half-life in vivo [1]	total protein half-life in vivo [2]	total protein half-life in vivo [3]	total protein half-life in vivo [4]	total protein half-life in vivo [5]	total protein half-life in vivo [6]	total protein half-life in vivo [7]	total protein half-life in vivo [8]	total protein half-life in vivo [9]	total protein half-life in vivo [10]	total protein half-life in vivo [11]	total protein half-life in vivo [12]
MHFLRRPISLRQRLILTIGAILLVFELISVFWLWHESTEQIQLFEQALRDNRNNDRHIMREIREAVASLIVPGVFMVSLTLFICYQAVRRITRPLAELQKELEARTADNLTPIAIHSATLEIEAVVSALNDLVSRLTSTLDNERLFTADVAHELRTPLAGVRLHLELLAKTHHIDVAPLVARLDQMMESVSQLLQLARAGQSFSSGNYQHVKLLEDVILPSYDELSTMLDQRQQTLLLPESAADITVQGDATLLRMLLRNLVENAHRYSPQGSNIMIKLQEDDGAVMAVEDEGPGIDESKCGELSKAFVRMDSRYGGIGLGLSIVSRITQLHHGQFFLQNRQETSGTRAWVRLKKDQYVANQI	5.995 ± 0.044 h	4.89 ± 1.3 h	6.2 ± 1.3 h	5.5 ± 0.35 h	3.17 ± 0.22 h	5.99 ± 0.74 h	11.5 ± 0.59 h	5.9 ± 0.18 h	12.7 ± 0.62 h	6.25 ± 0.75 h	11.1 ± 1.5 h	–
MKKWLLAAGLGLALATSAQAADKIAIVNMGSLFQQVAQKTGVSNTLENEFKGRASELQRMETDLQAKMKKLQSMKAGSDRTKLEKDVMAQRQTFAQKAQAFEQDRARRSNEERGKLVTRIQTAVKSVANSQDIDLVVDANAVAYNSSDVKDITADVLKQVK [P0AEU7]	7.77 ± 0.22 h	6.97 ± 1 h	6.66 ± 0.53 h	6.63 ± 0.26 h	3.15 ± 0.35 h	6 ± 0.15 h	10.3 ± 0.22 h	5.62 ± 0.57 h	13.4 ± 1.8 h	6.79 ± 1 h	13.7 ± 0.66 h	–
MATLTEDDVLEQLDAQDNLFSFMKTAHTILLQGIRQFLPSLFVDNDEEIVEYAVKPLLAQSGPLDDIDVALRLIYALGKMDKWLYADITHFSQFWHYLNEQDETPGFADDMTWDFISNVNSITRNAMLYDALKAMKFADFSVWSEARFSGMVKTALTLAVTTTLKELTP	4.21 ± 0.82 h	2.45 h	2.61 ± 0.36 h	2.07 h	2.02 h	> 8 h	4.45 ± 0.14 h	2.38 h	4.18 h	2.29 h	3.96 ± 1 h	3.67 h
MISAFDIFKIGIGPSSSHTVGPMNAGKSFIDRLESSGLLTATSHIVVDLYGSLSLTGKGHATDVAIIMGLAGNSPQDVVIDEIPAFIELVTRSGRLPVASGAHIVDFPVAKNIIFHPEMLPRHENGMRITAWKGQEELLSKTYYSVGGGFIVEEEHFGLSHDVETSVPYDFHSAGELLKMCDYNGLSISGLMMHNELALRSKAEIDAGFARIWQVMHDGIERGMNTEGVLPGPLNVPRRAVALRRQLVSSDNISNDPMNVIDWINMYALAVSEENAAGGRVVTAPTNGACGIIPAVLAYYDKFRRPVNERSIARYFLAAGAIGALYKMNASISGAEVGCQGEIGVACSMAAAGLTELLGGSPAQVCNAAEIAMEHNLGLTCDPVAGQVQIPCIERNAINAVKAVNAARMAMRRTSAPRVSLDKVIETMYETGKDMNDKYRETSRGGLAIKVVCG	4.67 h	–	–	–	–	2.13 h	2.34 h	–	–	–	–	–
MANIEIRQETPTAFYIKVHDTDNVAIIVNDNGLKAGTRFPDGLELIEHIPQGHKVALLDIPANGEIIRYGEVIGYAVRAIPRGSWIDESMVVLPEAPPLHTLPLATKVPEPLPPLEGYTFEGYRNADGSVGTKNLLGITTSVHCVAGVVDYVVKIIERDLLPKYPNVDGVVGLNHLYGCGVAINAPAAVVPIRTIHNISLNPNFGGEVMVIGLGCEKLQPERLLTGTDDVQAIPVESASIVSLQDEKHVGFQSMVEDILQIAERHLQKLNQRQRETCPASELVVGMQCGGSDAFSGVTANPAVGYASDLLVRCGATVMFSEVTEVRDAIHLLTPRAVNEEVGKRLLEEMEWYDNYLNMGKTDRSANPSPGNKKGGLANVVEKALGSIAKSGKSAIVEVLSPGQRPTKRGLIYAATPASDFVCGTQQVASGITVQVFTTGRGTPYGLMAVPVIKMATRTELANRWFDLMDINAGTIATGEETIEEVGWKLFHFILDVASGKKKTFSDQWGLHNQLAVFNPAPVT	4.25 ± 0.3 h	–	–	–	2.1 ± 0.18 h	3.22 ± 0.48 h	3.39 ± 0.27 h	–	–	–	3.6 h	2.43 h
MTDLHTDVERYLRYLSVERQLSPITLLNYQRQLEAIINFASENGLQSWQQCDVTMVRNFAVRSRRKGLGAASLALRLSALRSFFDWLVSQNELKANPAKGVSAPKAPRHLPKNIDVDDMNRLLDIDINDPLAVRDRAMLEVMYGAGLRLSELVGLDIKHLDLESGEVWVMGKGSKERRLPIGRNAVAWIEHWLDLRDLFGSEDDALFLSKLGKRISARNVQKRFAEWGIKQGLNNHVHPHKLRHSFATHMLESSGDLRGVQELLGHANLSTTQIYTHLDFQHLASVYDAAHPRAKRGK [P0A8P6]	4.56 ± 0.07 h	1.38 h	2.36 ± 0.25 h	1.64 ± 0.28 h	1.59 ± 0.34 h	2.67 h	–	1.81 h	2.08 ± 0.12 h	1.87 ± 0.3 h	3.1 ± 0.58 h	2.2684 ± 0.0015 h
MDYEFLRDITGVVKVRMSMGHEVVGHWFNEEVKENLALLDEVEQAAHALKGSERSWQRAGHEYTLWMDGEEVMVRANQLEFAGDEMEEGMNYYDEESLSLCGVEDFLQVVAAYRNFVQQK [P0A8E5]	4.89 ± 0.087 h	1.63 ± 0.034 h	2 ± 0.21 h	1.97 ± 0.039 h	2.18 ± 0.056 h	3.78 ± 0.4 h	6.328 ± 0.025 h	1.78 h	2.8 h	2.44 ± 0.26 h	4.45 ± 0.61 h	–
MQDAAPRLTFTLRDEERLMMKIGVFVPIGNNGWLISTHAPQYMPTFELNKAIVQKAEHYHFDFALSMIKLRGFGGKTEFWDHNLESFTLMAGLAAVTSRIQIYATAATLTLPPAIVARMAATIDSISGGRFGVNLVTGWQKPEYEQMGIWPGDDYFSRRYDYLTEYVQVLRDLWGTGKSDFKGDFFTMNDCRVSPQPSVPMKVICAGQSDAGMAFSARYADFNFCFGKGVNTPTAFAPTAARMKQAAEQTGRDVGSYVLFMVIADETDDAARAKWEHYKAGADEEALSWLTEQSQKDTRSGTDTNVRQMADPTSAVNINMGTLVGSYASVARMLDEVASVPGAEGVLLTFDDFLSGIETFGERIQPLMQCRAHLPALTQEVA	5.26 ± 0.37 h	0.715 ± 0.26 h	0.661 ± 0.0067 h	0.481 ± 0.11 h	–	–	–	0.658 ± 0.16 h	0.664 ± 0.16 h	–	–	3.06 ± 0.12 h
